Assays:
[1] = biological target: T1, gp130 bound OSM-WT (gp130:OSM-WT) (human, UniProt P40189 23-619); test: ELISA, apparent KD (KD,App), gp130 coated, saturating cytokine, soluble OSMR titrated (with gp130)
T1 construct: extracellular domain; Non-covalent complex formed on the plate: gp130 coated, then 200 nM OSM-WT; also called OSM-WT with gp130; not shown: N-terminal FLAG tag
T1 sequence 1: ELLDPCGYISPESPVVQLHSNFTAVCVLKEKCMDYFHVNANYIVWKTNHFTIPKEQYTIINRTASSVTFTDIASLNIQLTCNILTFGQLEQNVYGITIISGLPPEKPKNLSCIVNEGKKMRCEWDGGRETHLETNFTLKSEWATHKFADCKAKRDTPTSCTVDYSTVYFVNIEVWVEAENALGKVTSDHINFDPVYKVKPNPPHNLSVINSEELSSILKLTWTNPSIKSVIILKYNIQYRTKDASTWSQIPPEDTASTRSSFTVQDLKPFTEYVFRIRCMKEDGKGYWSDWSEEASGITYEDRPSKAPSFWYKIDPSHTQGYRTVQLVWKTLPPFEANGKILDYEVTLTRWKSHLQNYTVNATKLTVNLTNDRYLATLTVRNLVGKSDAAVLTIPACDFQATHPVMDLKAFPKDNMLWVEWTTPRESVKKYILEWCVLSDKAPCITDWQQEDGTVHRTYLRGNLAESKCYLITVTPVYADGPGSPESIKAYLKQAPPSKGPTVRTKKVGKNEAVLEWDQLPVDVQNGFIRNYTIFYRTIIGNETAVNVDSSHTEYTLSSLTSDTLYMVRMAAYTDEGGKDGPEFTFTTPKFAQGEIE
T1 sequence 2: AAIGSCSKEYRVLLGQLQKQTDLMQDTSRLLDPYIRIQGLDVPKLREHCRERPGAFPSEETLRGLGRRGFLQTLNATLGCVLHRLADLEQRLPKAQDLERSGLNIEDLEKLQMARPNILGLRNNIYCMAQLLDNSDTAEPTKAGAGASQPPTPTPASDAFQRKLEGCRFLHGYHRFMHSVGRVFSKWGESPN
Protocol: (§1) FIG. 13 graphically depicts an ELISA analysis of soluble OSMR and soluble LIFR binding with LIF, OSM-WT, OSM-M1 and OSM-M2 or gp130 bound LIF (gp130:LIF), OSM-WT (gp130:OSM-WT), OSM-M1 (gp130:OSM-M1) and OSM-M2 (gp130:OSM-M2). Cytokines (LIF, OSM-WT, OSM-M1 or OSM-M2) immobilized on an ELISA plate in the absence (A,C) or presence (B,D) of gp130 were treated with various concentrations of soluble OSMR (A,B) or soluble LIFR (C,D). Equilibrium KD values were estimated using a non-linear curve fitting to the binding data using GraphPad Prism (Graph Pad Software. LaJolla, Calif.). In addition, see Table 3.
(§2) Enzyme-linked immunosorbent assay (ELISA): ELISA was used to evaluate the equilibrium binding strength of the interaction between the cytokines and their receptors. This technique has traditionally been used as a sensitive method to quantify the binding affinities between two interacting proteins. However, unlike in SPR, ELISA involves immobilization of the proteins on a flat plastic surface driven by hydrophobic and ionic interactions. This might cause some distortion in the 3 dimensional structure of immobilized protein which leads to inaccuracies in the estimation of dissociation constants. It is thus important to bear in mind that the values estimated using this technique are to be used only for comparison between species but not as true equilibrium binding constants. The results obtained using this technique will thus be presented as apparent equilibrium dissociation constants (K_{D,App}). For direct interaction studies, cytokines (LIF, OSM-WT, OSM-M1 or OSM-M2) were immobilized on the 96 well ELISA plate by incubating the wells with 200 μl of 5 nM cytokine solution in PBS, pH 7.4 overnight at 4° C. The wells were then blocked with blocking buffer (4% BSA in PBS) for 1 hour at room temperature. […]

[2] = biological target: T2, gp130 bound OSM-M1 (gp130:OSM-M1) (human, UniProt P40189 23-619); test: as above
T2 construct: extracellular domain; Non-covalent complex formed on the plate: gp130 coated, then 200 nM OSM-M1; also called OSM-M1 with gp130; not shown: N-terminal FLAG tag
T2 sequence 1: T1 sequence 1
T2 sequence 2: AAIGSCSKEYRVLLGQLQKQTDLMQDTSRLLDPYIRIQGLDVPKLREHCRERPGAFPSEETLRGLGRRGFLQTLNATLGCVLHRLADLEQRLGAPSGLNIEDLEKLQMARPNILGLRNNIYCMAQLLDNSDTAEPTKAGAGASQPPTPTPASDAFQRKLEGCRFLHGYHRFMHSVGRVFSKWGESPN
Protocol: as §1, §2

[3] = biological target: T3, gp130 bound OSM-M2 (gp130:OSM-M2) (human, UniProt P40189 23-619); test: as above
T3 construct: extracellular domain; Non-covalent complex formed on the plate: gp130 coated, then 200 nM OSM-M2; also called OSM-M2 with gp130; not shown: N-terminal FLAG tag
T3 sequence 1: T1 sequence 1
T3 sequence 2: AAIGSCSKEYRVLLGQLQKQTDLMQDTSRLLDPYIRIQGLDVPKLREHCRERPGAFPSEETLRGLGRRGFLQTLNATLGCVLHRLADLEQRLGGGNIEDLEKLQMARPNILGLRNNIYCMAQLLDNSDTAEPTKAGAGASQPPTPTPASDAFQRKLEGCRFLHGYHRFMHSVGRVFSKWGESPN
Protocol: as §1, §2

[4] = biological target: T4, gp130 bound LIF (gp130:LIF) (human, UniProt P40189 23-619; P15018 23-202); test: ELISA, gp130 coated and loaded with LIF, soluble OSMR titrated, anti-OSMR detection, O.D at 450 nm
T4 construct: Non-covalent complex formed on the plate: gp130 coated, then saturating cytokine; also called LIF with gp130
T4 sequence (P15018 23-202 limits assumed, one chain of several): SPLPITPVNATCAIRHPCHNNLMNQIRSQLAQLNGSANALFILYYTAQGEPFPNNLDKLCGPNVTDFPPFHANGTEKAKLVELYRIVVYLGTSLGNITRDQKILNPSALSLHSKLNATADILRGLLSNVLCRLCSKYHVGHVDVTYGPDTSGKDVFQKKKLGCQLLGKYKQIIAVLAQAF

- Kd [1]: 10.9 nM
- Kd [2]: 3.71 nM
- Kd [3]: 2.19 nM
- binding result [4]: no binding (tested: 75 nM)
B1: soluble human OSMR (Oncostatin M receptor) (receptor, UniProt Q99650 28-740, looked up)
chain: ERLPLTPVSLKVSTNSTRQSLHLQWTVHNLPYHQELKMVFQIQISRIETSNVIWVGNYSTTVKWNQVLHWSWESELPLECATHFVRIKSLVDDAKFPEPNFWSNWSSWEEVSVQDSTGQDILFVFPKDKLVEEGTNVTICYVSRNIQNNVSCYLEGKQIHGEQLDPHVTAFNLNSVPFIRNKGTNIYCEASQGNVSEGMKGIVLFVSKVLEEPKDFSCETEDFKTLHCTWDPGTDTALGWSKQPSQSYTLFESFSGEKKLCTHKNWCNWQITQDSQETYNFTLIAENYLRKRSVNILFNLTHRVYLMNPFSVNFENVNATNAIMTWKVHSIRNNFTYLCQIELHGEGKMMQYNVSIKVNGEYFLSELEPATEYMARVRCADASHFWKWSEWSGQNFTTLEAAPSEAPDVWRIVSLEPGNHTVTLFWKPLSKLHANGKILFYNVVVENLDKPSSSELHSIPAPANSTKLILDRCSYQICVIANNSVGASPASVIVISADPENKEVEEERIAGTEGGFSLSWKPQPGDVIGYVVDWCDHTQDVLGDFQWKNVGPNTTSTVISTDAFRPGVRYDFRIYGLSTKRIACLLEKKTGYSQELAPSDNPHVLVDTLTSHSFTLSWKDYSTESQPGFIQGYHVYLKSKARQCHPRFEKAVLSDGSECCKYKIDNPEEKALIVDNLKPESFYEFFITPFTSAGEGPSATFTKVTTPDEHSSM
notes: extracellular domain; Bought; also called soluble OSMR

Reference: patent US20100310509A1 (published 2010)
